The values that follow come from patent US11306156.

For assay [1], the target named is D3H44 light chain Q124E_T180E (Kabat), N-terminal HA or FLAG tag. Description: LCCA co-expression, competing light chain m36, L1:L2 DNA 1:3 normalized to 1:1, SPR tag read-out.
Assay [2] shares this target. Description: LCCA co-expression, competing light chain m36, L1:L2 DNA 1:9 normalized to 1:1, SPR tag read-out.
The target of assay [3] is D3H44 light chain S131K (Kabat), N-terminal HA or FLAG tag. The assay can be described thus: LCCA co-expression, competing light chain m37, L1:L2 DNA 1:3 normalized to 1:1, SPR tag read-out.
The target is the same in assay [4]. The assay can be described thus: LCCA co-expression, competing light chain m37, L1:L2 DNA 1:9 normalized to 1:1, SPR tag read-out.
Assay [5] has as its target D3H44 light chain Q124E_V133G_S176D_T178E_T180E. The assay can be described thus: LCCA (co-expression, SPR tag read-out), L1:L2 DNA 1:3 normalised to 1:1; competing light chain m7.
For assay [6], the target named is D3H44 light chain V133G_S176D_T178E_T180E. The assay is described as above.
For assay [7], the target named is D3H44 light chain Q124E_V133G_S176D_T178D_T180E. Described as above.
For assay [8], the target named is D3H44 light chain V133G_S176D_T178D_T180E. Described as above.
For assay [9], the target named is D3H44 light chain Q124E_V133G_S176D_T178E_T180E. The assay can be described thus: LCCA (co-expression, SPR tag read-out), L1:L2 DNA 1:9 normalised to 1:1; competing light chain m8.
For assay [10], the target named is D3H44 light chain V133G_Q160E_S176D_T180E. Described as above.
Assay [11] deals with D3H44 light chain Q124E_V133G_S176D_T178E_T180E. The assay can be described thus: LCCA (co-expression, SPR tag read-out), L1:L2 DNA 1:3 normalised to 1:1; competing light chain m8.
The target of assay [12] is D3H44 light chain V133G_Q160E_S176D_T180E. The assay is described as above.
For assay [13], the target named is D3H44 light chain V133G_S176D_T178E_T180E. Described as above.
Assay [14] deals with D3H44 light chain Q124E_V133G_S176D_T178D_T180E. Described as above.
The target of assay [15] is D3H44 light chain V133G_S176D_T178D_T180E. The assay is described as above.
The target in assay [16] is tissue factor (TF) antigen (UniProt P13726). The assay can be described thus: SPR (ProteOn), Fab captured via anti-penta-His, TF injected, 1:1 fit; batch C (+).
For assay [17] the target is unchanged. Description: SPR (ProteOn), Fab captured via anti-penta-His, TF injected, 1:1 fit; reference wild-type D3H44 Fab; batch C (+).
For assay [18] the target is unchanged. The assay can be described thus: SPR (ProteOn XPR36), Fab captured on anti-penta-His surface, TF as analyte, 1:1 fit; batch C (stored about 2 months at 4 C).
Assay [19] has the same target. Description: SPR (ProteOn XPR36), Fab captured on anti-penta-His surface, TF as analyte; reference wild-type D3H44 Fab; batch C.
The target in assay [20] is tissue factor (TF) antigen (human (from the antibody's name 'anti-human tissue factor'; not stated for the antigen lot in the assay)) (UniProt P13726). The assay can be described thus: SPR (ProteOn XPR36), Fab captured on anti-penta His, TF analyte; against wild-type D3H44 Fab.
Assay [21] shares this target. Description: SPR (ProteOn XPR36): Fab captured via His tag on anti-penta His surface, TF injected, 1:1 fit.
Assay [22] deals with tissue factor (TF) antigen (UniProt P13726). Description: SPR (ProteOn XPR36), Fab captured by His tag on anti-penta-His surface, TF injected as analyte; against wild-type D3H44 Fab; batch C (+).
For assay [23] the target is unchanged. The assay can be described thus: SPR (ProteOn XPR36), Fab captured by His tag on anti-penta-His surface, TF injected as analyte, 1:1 fit; batch C (+).
For assay [24] the target is unchanged. The assay can be described thus: SPR (ProteOn XPR36), Fab captured on anti-penta-His surface, TF injected as analyte, 1:1 fit.
For assay [25] the target is unchanged. The assay can be described thus: SPR (ProteOn XPR36), Fab captured on anti-penta-His surface, TF injected as analyte, 1:1 fit; reference wild-type D3H44 Fab.
For assay [26] the target is unchanged. Description: SPR (ProteOn XPR36), Fab captured on anti-penta-His surface, TF injected as analyte, 1:1 fit; marked * (estimated from a Fab that differs only in the L chain tag); reference wild-type D3H44 Fab.
The target is the same in assay [27]. The assay can be described thus: SPR (ProteOn XPR36), Fab captured on anti-penta-His surface, TF injected as analyte, 1:1 fit; marked * (estimated from a Fab that differs only in the L chain tag).
For assay [28] the target is unchanged. Description: SPR (ProteOn XPR36), Fab captured on anti-penta His, TF injected at 0.74-60 nM, 1:1 model; median.

Take “D3H44 Fab heavy chain K145T_Q179E (Kabat), C-terminal ABD2-His6 tag”: the H1L1:H1L2 normalized median ratio in assay [1] is 58 of 100; in assay [2], 25 of 100; in [3], 42 of 100; in assay [4] it was 75 of 100. Besides, the figures for the H1L1:H1L2 normalized median scalar value ln(r1/f1) in assay [3] and in assay [4] were -0.34 and 1.1, respectively.

D3H44 Fab heavy chain L124E_K145T_Q179E: the H1L1:H1L2 normalized median ratio in assay [5] was 5 parts of 100; in assay [6], 5 parts of 100; in assay [7], 4 parts of 100; in [8] it was 5 parts of 100; in [9] it was 3 parts of 100; in assay [10], 5 parts of 100. In addition, the H1L1:H1L2 normalized median ratio in assay [11] is 3 parts of 100; in assay [12] it was 4 parts of 100; in assay [13], 3 parts of 100; in assay [14], 4 parts of 100; in assay [15], 4 parts of 100.

Take D3H44 Fab heavy chain L124R_Q179K: the H2L2:H2L1 normalized median ratio is 93 parts of 100 in assay [5]; 93 parts of 100 in assay [6]; 91 parts of 100 in assay [9]; 94 parts of 100 in [10]; 92 parts of 100 in [11]; 91 parts of 100 in assay [12]. Also, the H2L2:H2L1 normalized median ratio in assay [13] is 92 parts of 100.

As for D3H44 Fab heavy chain L124R_S186K, the H2L2:H2L1 normalized median ratio is 92 parts of 100 in assay [7], 91 parts of 100 in assay [8], 91 parts of 100 in assay [14] and 90 parts of 100 in assay [15].

Regarding “D3H44 Fab heavy chain S186K (Kabat), C-terminal ABD2-His6 tag”, the H2L2:H2L1 normalized median ratio was 98 of 100 in [1], 93 of 100 in assay [2], 2 of 100 in assay [3] and 7 of 100 in assay [4].

For the substance “D3H44 Fab heterodimer (H1L1) of LCCA Set # 9851: H1 S186K, L1 Q124E_T178E_T180E”, the dissociation constant Kd (in general, the concentration at which binding is half-saturated) in assay [16] worked out at 0.15 nM. This substance also displayed a change in median KD compared to wild type, -(log(KD design)-log(KD wt)) in assay [17] of 0.02.

Regarding “D3H44 Fab heterodimer (H1L1) of LCCA Sets # 9829, 9830: H1 S186K, L1 Q124E_Q160E_T178E”, the Kd in [16] amounted to 0.06 nM. The same substance displayed a change in median KD compared to wild type, -(log(KD design)-log(KD wt)) in assay [17] of 0.41.

In assay [16], “D3H44 Fab heterodimer (H1L1) of LCCA Sets # 9979, 9983: H1 Q179K, L1 S131E” returned a Kd of 0.14 nM. In assay [17], this substance displayed a change in median KD compared to wild type, -(log(KD design)-log(KD wt)) of 0.05.

Regarding “D3H44 Fab heterodimer H1 S186K / L1 S131E”, the Kd in [18] worked out at 0.14 nM. The substance further gave a Change in median values of KD of h1l1 Fab heterodimer compared to wild type (-(log(KD design)-log(KD wt))) in assay [19] of 0.05.

In turn, “D3H44 Fab heterodimer H1 S188L_V190Y / L1 V133S” yielded a dissociation constant (Kd) in assay [18] of 0.1 nM. This substance gave a Change in median values of KD of h1l1 Fab heterodimer compared to wild type (-(log(KD design)-log(KD wt))) in assay [19] of 0.2.

As for “D3H44 Fab heterodimer, H1 A139C_L143E_K145T_Q179E / L1 F116C_Q124R_T178R (H1L1 Fab of LCCA set 9049)”, the Change in median values of KD of h1l1 Fab heterodimer compared to wild type (-(log(KD design)-log(KD wt))) in assay [20] is -0.01. In assay [21], the dissociation constant (Kd) is 0.16 nM.

As for “D3H44 Fab heterodimer, H1 L124E_L143E_K145T / L1 Q124K_V133G_Q160K_S176R (H1L1 Fab of LCCA set 9277)”, the Change in median values of KD of h1l1 Fab heterodimer compared to wild type (-(log(KD design)-log(KD wt))) in [20] was -0.12. The Kd in assay [21] came out at 0.2 nM.

“D3H44 H1L1 Fab heterodimer of LCCA Set # 9648 (H1 L143E_K145T_Q179E, L1 Q124K_T178R)” returned a change in median KD compared to wild type, -(log(KD design)-log(KD wt)) in [22] of 0.05 log. The substance also came in with a dissociation constant (Kd) in [23] of 0.14 nM.

In the case of “D3H44 H1L1 Fab heterodimer of LCCA Set # 9982 (H1 S186K, L1 S131E)”, the change in median KD compared to wild type, -(log(KD design)-log(KD wt)) in [22] was 0.05 log. Also, in assay [23], the Kd was found to be 0.14 nM.

“D3H44 H1L1 Fab heterodimer of LCCA Sets # 9888 and 9887 (H1 S186R, L1 Q124E_T178E)” gave a change in median KD compared to wild type, -(log(KD design)-log(KD wt)) in [22] of 0.06 log. Moreover, the equilibrium dissociation constant (Kd) in assay [23] came to 0.14 nM.

In the case of “D3H44 H1L1 Fab heterodimer, H1 L124E_L143E_K145M, L1 Q124K_V133G_Q160K_S176R”, the dissociation constant (Kd) in [24] came to 0.28 nM. The Change in median KD of h1l1 Fab heterodimer compared to wild type (-(log(KD design)-log(KD wt))) (log(KD) difference) in assay [25] is -0.26.

In turn, “D3H44 H1L1 Fab heterodimer, H1 L124E_L143E_K145T, L1 Q124K_V133G_Q160K_S176R” yielded a Kd in assay [24] of 0.2 nM. The Change in median KD of h1l1 Fab heterodimer compared to wild type (-(log(KD design)-log(KD wt))) (log(KD) difference) in assay [25] is -0.12.

Consider “D3H44 H1L1 Fab heterodimer, H1 L124E_L143E_K145T, L1 Q124K_V133G_S176R_T178R”, for which the Change in median KD of h1l1 Fab heterodimer compared to wild type (-(log(KD design)-log(KD wt))) (log(KD) difference) in assay [26] was -0.07. Moreover, the Kd in assay [27] was 0.18 nM.

Turning to “wild-type D3H44 Fab heterodimer where the light chain contains a FLAG tag”, the Kd in [28] is 0.157 nM.
